Kd data for one substance are collected here from publication PMC6941993.

In general, Kd refers to a measure of binding affinity in units of concentration.

Common to all, as to assay: SPR; Biacore T200; […]; single-cycle kinetics; […]
A general note: SPR reads the build-up and loss of mass on a sensor chip optically.

Test [1] has as its target GP1_(MACV)–Fc (Machupo virus (MACV)) (UniProt Q8AZ52).
The target in test [2] is GP1_(WWAV)–Fc (Whitewater Arroyo virus (WWAV)) (UniProt Q911P0).
The target of test [3] is GP1_(JUNV)–Fc (Junín virus (JUNV)) (UniProt O10428).

Take “stand-alone apical domain (sAD) designed from White-throated woodrat TfR1 (domain or fragment)”: the Kd amounted to 4 nM in test [1], 1000 nM in test [2] and 1000 nM in test [3].
